# Test results as given in article PMC8643700.
# B1: sgRNA MT + 2.7 kb DNA with FM protospacer (mixed)
# RNA: GAGCGAUACACAUGAGACGCGUUUUAGAGCUAGAAAUAGCAAGUUAAAAUAAGGCUAGUCCGUUAUCAACUUGAAAAAGUGGCACCGAGUCGGUGCUUUUU
# Biological target: Cas9wt (SpCas9) (Streptococcus pyogenes, UniProt Q99ZW2 1-1368)
# Experiment: single-molecule magnetic tweezers
# Chain of Cas9wt (SpCas9) (Q99ZW2 whole entry): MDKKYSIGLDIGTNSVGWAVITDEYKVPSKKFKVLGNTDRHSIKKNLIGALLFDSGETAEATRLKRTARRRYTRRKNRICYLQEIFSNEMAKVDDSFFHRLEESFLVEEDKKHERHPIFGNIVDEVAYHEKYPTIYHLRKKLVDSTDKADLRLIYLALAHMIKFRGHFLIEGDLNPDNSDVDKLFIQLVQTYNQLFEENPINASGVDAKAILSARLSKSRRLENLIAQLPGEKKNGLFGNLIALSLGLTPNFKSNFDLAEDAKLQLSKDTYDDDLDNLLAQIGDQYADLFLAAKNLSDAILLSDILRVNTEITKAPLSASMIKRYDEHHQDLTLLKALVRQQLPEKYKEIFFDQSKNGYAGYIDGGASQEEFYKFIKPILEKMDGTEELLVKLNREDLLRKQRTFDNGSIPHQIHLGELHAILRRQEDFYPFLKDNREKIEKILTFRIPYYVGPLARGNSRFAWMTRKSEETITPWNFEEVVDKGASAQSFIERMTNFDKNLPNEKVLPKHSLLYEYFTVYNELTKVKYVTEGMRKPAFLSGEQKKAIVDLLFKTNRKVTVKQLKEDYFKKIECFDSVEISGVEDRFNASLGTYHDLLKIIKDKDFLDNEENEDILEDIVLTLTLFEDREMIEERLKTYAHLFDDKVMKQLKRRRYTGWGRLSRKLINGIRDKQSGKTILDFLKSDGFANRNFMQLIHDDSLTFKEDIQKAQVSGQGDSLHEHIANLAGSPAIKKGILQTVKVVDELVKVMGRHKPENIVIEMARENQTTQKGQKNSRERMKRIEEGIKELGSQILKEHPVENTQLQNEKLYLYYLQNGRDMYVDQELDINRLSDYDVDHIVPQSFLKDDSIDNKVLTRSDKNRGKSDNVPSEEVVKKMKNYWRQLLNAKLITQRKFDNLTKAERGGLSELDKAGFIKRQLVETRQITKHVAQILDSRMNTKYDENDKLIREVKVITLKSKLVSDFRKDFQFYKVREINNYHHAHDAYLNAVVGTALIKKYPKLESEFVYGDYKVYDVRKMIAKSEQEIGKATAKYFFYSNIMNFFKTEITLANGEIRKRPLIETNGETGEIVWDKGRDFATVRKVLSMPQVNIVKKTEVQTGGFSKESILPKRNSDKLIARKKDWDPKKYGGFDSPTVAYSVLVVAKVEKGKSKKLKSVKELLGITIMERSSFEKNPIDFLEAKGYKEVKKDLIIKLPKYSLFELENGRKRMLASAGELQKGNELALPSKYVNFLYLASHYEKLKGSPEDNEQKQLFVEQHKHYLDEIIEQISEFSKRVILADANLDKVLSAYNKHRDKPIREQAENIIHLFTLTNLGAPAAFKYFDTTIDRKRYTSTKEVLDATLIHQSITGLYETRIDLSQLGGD
binder,measurement,value
B1,binding result,binds
